According to the supplement of paper PMC5998384:

Key:
[1] = system: HeLa Kyoto; assay: solubility change mitosis vs G1/S (difference of NP-40 vs SDS log2 ratios) (log2 ratio difference); higher = more soluble in mitosis
[2] = system: HeLa Kyoto; assay: solubility in G1/S (NP-40 vs SDS abundance) (log2 ratio); higher = more soluble; details: cell cycle stage: G1/S
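Wherever solubility change mitosis vs G1/S (difference of NP-40 vs SDS log2 ratios) is given: synchronized HeLa Kyoto cells (double thymidine block for G1/S, nocodazole release for mitosis), protein amounts in NP-40 versus SDS lysates quantified by mass spectrometry, three biological replicates.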
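Wherever solubility in G1/S (NP-40 vs SDS abundance) is given: HeLa Kyoto cells arrested at G1/S by double thymidine block, proteins quantified by TMT10plex mass spectrometry in mild NP-40 versus SDS extracts, three biological replicates.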

Sequence	solubility change mitosis (log2) [1]	solubility in G1/S (log2) [2]
MEPQEERETQVAAWLKKIFGDHPIPQYEVNPRTTEILHHLSERNRVRDRDVYLVIEDLKQKASEYESEAKYLQDLLMESVNFSPANLSSTGSRYLNALVDSAVALETKDTSLASFIPAVNDLTSDLFRTKSKSEEIKIELEKLEKNLTATLVLEKCLQEDVKKAELHLSTERAKVDNRRQNMDFLKAKSEEFRFGIKAAEEQLSARGMDASLSHQSLVALSEKLARLKQQTIPLKKKLESYLDLMPNPSLAQVKIEEAKRELDSIEAELTRRVDMMEL [HAUS1]	0.128	0.463
MAEASSLGRQSPRVVSCLEHSLCPGEPGLQTTAVVSMGSGDHQFNLAEILSQNYSVRGECEEASRCPDKPKEELEKDFISQSNDMPFDELLALYGYEASDPISDRESEGGDVAPNLPDMTLDKEQIAKDLLSGEEEEETQSSADDLTPSVTSHEASDLFPNRSGSRFLADEDREPGSSASSDTEEDSLPANKCKKEIMVGPQFQADLSNLHLNRHCEKIYENEDQLLWDPSVLPEREVEEFLYRAVKRRWHEMAGPQLPEGEAVKDSEQALYELVKCNFNVEEALRRLRFNVKVIRDGLCAWSEEECRNFEHGFRVHGKNFHLIQANKVRTRSVGECVEYYYLWKKSERYDYFAQQTRLGRRKYVPSGTTDADQDLDGSDPDGPGRPRPEQDTLTGMRTDPLSVDGTAGGLDEPGVASDGLPSSEPGPCSFQQLDESPAVPLSHRPPALADPASYQPAVTAPEPDASPRLAVDFALPKELPLISSHVDLSGDPEETVAPAQVALSVTEFGLIGIGDVNPFLAAHPTCPAPGLHSEPLSHCNVMTC [MIER2]	-0.304	0.172
MLPPMALPSVSWMLLSCLMLLSQVQGEEPQRELPSARIRCPKGSKAYGSHCYALFLSPKSWTDADLACQKRPSGNLVSVLSGAEGSFVSSLVKSIGNSYSYVWIGLHDPTQGTEPNGEGWEWSSSDVMNYFAWERNPSTISSPGHCASLSRSTAFLRWKDYNCNVRLPYVCKFTD [PAP1]	-0.21	0.102
MNSSSANITYASRKRRKPVQKTVKPIPAEGIKSNPSKRHRDRLNTELDRLASLLPFPQDVINKLDKLSVLRLSVSYLRAKSFFDVALKSSPTERNGGQDNCRAANFREGLNLQEGEFLLQALNGFVLVVTTDALVFYASSTIQDYLGFQQSDVIHQSVYELIHTEDRAEFQRQLHWALNPSQCTESGQGIEEATGLPQTVVCYNPDQIPPENSPLMERCFICRLRCLLDNSSGFLAMNFQGKLKYLHGQKKKGKDGSILPPQLALFAIATPLQPPSILEIRTKNFIFRTKHKLDFTPIGCDAKGRIVLGYTEAELCTRGSGYQFIHAADMLYCAESHIRMIKTGESGMIVFRLLTKNNRWTWVQSNARLLYKNGRPDYIIVTQRPLTDEEGTEHLRKRNTKLPFMFTTGEAVLYEATNPFPAIMDPLPLRTKNGTSGKDSATTSTLSKDSLNPSSLLAAMMQQDESIYLYPASSTSSTAPFENNFFNESMNECRNWQDNTAPMGNDTILKHEQIDQPQDVNSFAGGHPGLFQDSKNSDLYSIMKNLGIDFEDIRHMQNEKFFRNDFSGEVDFRDIDLTDEILTYVQDSLSKSPFIPSDYQQQQSLALNSSCMVQEHLHLEQQQQHHQKQVVVEPQQQLCQKMKHMQVNGMFENWNSNQFVPFNCPQQDPQQYNVFTDLHGISQEFPYKSEMDSMPYTQNFISCNQPVLPQHSKCTELDYPMGSFEPSPYPTTSSLEDFVTCLQLPENQKHGLNPQSAIITPQTCYAGAVSMYQCQPEPQHTHVGQMQYNPVLPGQQAFLNKFQNGVLNETYPAELNNINNTQTTTHLQPLHHPSEARPFPDLTSSGFL [AHR]	-0.105	-0.135
MAAVGPPQQQVRMAHQQVWAALEVALRVPCLYIIDAIFNSYPDSSQSRFCIVLQIFLRLFGVFASSIVLILSQRSLFKFYTYSSAFLLAATSVLVNYYASLHIDFYGAYNTSAFGIELLPRKGPSLWMALIVLQLTFGIGYVTLLQIHSIYSQLIILDLLVPVIGLITELPLHIRETLLFTSSLILTLNTVFVLAVKLKWFYYSTRYVYLLVRHMYRIYGLQLLMEDTWKRIRFPDILRVFWLTRVTAQATVLMYILRMANETDSFFISWDDFWDLICNLIISGCDSTLTVLGMSAVISSVAHYLGLGILAFIGSTEEDDRRLGFVAPVLFFILALQTGLSGLRPEERLIRLSRNMCLLLTAVLHFIHGMTDPVLMSLSASHVSSFRRHFPVLFVSACLFILPVLLSYVLWHHYALNTWLFAVTAFCVELCLKVIVSLTVYTLFMIDGYYNVLWEKLDDYVYYVRSTGSIIEFIFGVVMFGNGAYTMMFESGSKIRAFMMCLHAYFNIYLQAKNGWKTFMNRRTAVKKINSLPEIKGSRLQEINDVCAICYHEFTTSARITPCNHYFHALCLRKWLYIQDTCPMCHQKVYIEDDIKDNSNVSNNNGFIPPNETPEEAVREAAAESDRELNEDDSTDCDDDVQRERNGVIQHTGAAAEEFNDDTD [RNF139]	-0.107	-0.206
MSKTFLRPKVSSTKVTDWVDPSFDDFLECSGVSTITATSLGVNNSSHRRKNGPSTLESSRFPARKRGNLSSLEQIYGLENSKEYLSENEPWVDKYKPETQHELAVHKKKIEEVETWLKAQVLERQPKQGGSILLITGPPGCGKTTTLKILSKEHGIQVQEWINPVLPDFQKDDFKGMFNTESSFHMFPYQSQIAVFKEFLLRATKYNKLQMLGDDLRTDKKIILVEDLPNQFYRDSHTLHEVLRKYVRIGRCPLIFIISDSLSGDNNQRLLFPKEIQEECSISNISFNPVAPTIMMKFLNRIVTIEANKNGGKITVPDKTSLELLCQGCSGDIRSAINSLQFSSSKGENNLRPRKKGMSLKSDAVLSKSKRRKKPDRVFENQEVQAIGGKDVSLFLFRALGKILYCKRASLTELDSPRLPSHLSEYERDTLLVEPEEVVEMSHMPGDLFNLYLHQNYIDFFMEIDDIVRASEFLSFADILSGDWNTRSLLREYSTSIATRGVMHSNKARGYAHCQGGGSSFRPLHKPQWFLINKKYRENCLAAKALFPDFCLPALCLQTQLLPYLALLTIPMRNQAQISFIQDIGRLPLKRHFGRLKMEALTDREHGMIDPDSGDEAQLNGGHSAEESLGEPTQATVPETWSLPLSQNSASELPASQPQPFSAQGDMEENIIIEDYESDGT [RAD17]	0.000111	-0.0641
MVYISNGQVLDSRSQSPWRLSLITDFFWGIAEFVVLFFKTLLQQDVKKRRSYGNSSDSRYDDGRGPPGNPPRRMGRINHLRGPSPPPMAGGUGR [SELK]	0.31	0.000519
MMLSRAKPAVGRGVQHTDKRKKKGRKIPKLEELLSKRDFTGAITLLEFKRHVGEEEEDTNLWIGYCAFHLGDYKRALEEYENATKEENCNSEVWVNLACTYFFLGMYKQAEAAGFKASKSRLQNRLLFHLAHKFNDEKKLMSFHQNLQDVTEDQLSLASIHYMRSHYQEAIDIYKRILLDNREYLALNVYVALCYYKLDYYDVSQEVLAVYLQQIPDSTIALNLKACNHFRLYNGRAAEAELKSLMDNASSSFEFAKELIRHNLVVFRGGEGALQVLPPLVDVIPEARLNLVIYYLRQDDVQEAYNLIKDLEPTTPQEYILKGVVNAALGQEMGSRDHMKIAQQFFQLVGGSASECDTIPGRQCMASCFFLLKQFDDVLIYLNSFKSYFYNDDIFNFNYAQAKAATGNTSEGEEAFLLIQSEKMKNDYIYLSWLARCYIMNKKPRLAWELYLKMETSGESFSLLQLIANDCYKMGQFYYSAKAFDVLERLDPNPEYWEGKRGACVGIFQMIIAGREPKETLREVLHLLRSTGNTQVEYMIRIMKKWAKENRVSI [TTC26]	-0.0547	-0.122
MAGGPGPGEPAAPGAQHFLYEVPPWVMCRFYKVMDALEPADWCQFAALIVRDQTELRLCERSGQRTASVLWPWINRNARVADLVHILTHLQLLRARDIITAWHPPAPLPSPGTTAPRPSSIPAPAEAEAWSPRKLPSSASTFLSPAFPGSQTHSGPELGLVPSPASLWPPPPSPAPSSTKPGPESSVSLLQGARPFPFCWPLCEISRGTHNFSEELKIGEGGFGCVYRAVMRNTVYAVKRLKENADLEWTAVKQSFLTEVEQLSRFRHPNIVDFAGYCAQNGFYCLVYGFLPNGSLEDRLHCQTQACPPLSWPQRLDILLGTARAIQFLHQDSPSLIHGDIKSSNVLLDERLTPKLGDFGLARFSRFAGSSPSQSSMVARTQTVRGTLAYLPEEYIKTGRLAVDTDTFSFGVVVLETLAGQRAVKTHGARTKYLKDLVEEEAEEAGVALRSTQSTLQAGLAADAWAAPIAMQIYKKHLDPRPGPCPPELGLGLGQLACCCLHRRAKRRPPMTQVYERLEKLQAVVAGVPGHSEAASCIPPSPQENSYVSSTGRAHSGAAPWQPLAAPSGASAQAAEQLQRGPNQPVESDESLGGLSAALRSWHLTPSCPLDPAPLREAGCPQGDTAGESSWGSGPGSRPTAVEGLALGSSASSSSEPPQIIINPARQKMVQKLALYEDGALDSLQLLSSSSLPGLGLEQDRQGPEESDEFQS [IRAK1]	0.07	0.247
MAKRRAAEPVTFHVPWKRLLLCDFAEQPPPPPLWIRPPGVAHAGQLLGVPEQHRKRKIDAGTMAEPSASPSKRRDSGDNSAPSGQEREDHGLETGDPPLPPPPVLPGPGEELPGARLPGGGGDDGAGRAGPPRGDWGVASRQHNEEFWQYNTFQYWRNPLPPIDLADIEDLSEDTLTEATLQGRNEGAEVDMES [C9ORF40]	-0.227	0.182
MAEPSQAPTPAPAAQPRPLQSPAPAPTPTPAPSPASAPIPTPTPAPAPAPAAAPAGSTGTGGPGVGSGGAGSGGDPARPGLSQQQRASQRKAQVRGLPRAKKLEKLGVFSACKANETCKCNGWKNPKPPTAPRMDLQQPAANLSELCRSCEHPLADHVSHLENVSEDEINRLLGMVVDVENLFMSVHKEEDTDTKQVYFYLFKLLRKCILQMTRPVVEGSLGSPPFEKPNIEQGVLNFVQYKFSHLAPRERQTMFELSKMFLLCLNYWKLETPAQFRQRSQAEDVATYKVNYTRWLCYCHVPQSCDSLPRYETTHVFGRSLLRSIFTVTRRQLLEKFRVEKDKLVPEKRTLILTHFPKFLSMLEEEIYGANSPIWESGFTMPPSEGTQLVPRPASVSAAVVPSTPIFSPSMGGGSNSSLSLDSAGAEPMPGEKRTLPENLTLEDAKRLRVMGDIPMELVNEVMLTITDPAAMLGPETSLLSANAARDETARLEERRGIIEFHVIGNSLTPKANRRVLLWLVGLQNVFSHQLPRMPKEYIARLVFDPKHKTLALIKDGRVIGGICFRMFPTQGFTEIVFCAVTSNEQVKGYGTHLMNHLKEYHIKHNILYFLTYADEYAIGYFKKQGFSKDIKVPKSRYLGYIKDYEGATLMECELNPRIPYTELSHIIKKQKEIIKKLIERKQAQIRKVYPGLSCFKEGVRQIPVESVPGIRETGWKPLGKEKGKELKDPDQLYTTLKNLLAQIKSHPSAWPFMEPVKKSEAPDYYEVIRFPIDLKTMTERLRSRYYVTRKLFVADLQRVIANCREYNPPDSEYCRCASALEKFFYFKLKEGGLIDK [KAT2A]	-0.058	0.0904
